± gives the uncertainty stated by the source.
Test: self-splicing fitness, log relative to wild type (ln ratio); higher = more splicing; Tetrahymena group I intron in knt gene, E. coli kanamycin selection, DiMSum; sequences stand for … in CUCUCU…GGAGGGAAAAGUUAUCAGGCAUGCACCUGGUAGCUAGUCUUUAAACCAAUAGAUUGCAUCGGUUUAAAAGGCAAGACCGUCAAAUUGCGGGAAAGGGGUCAACAGCCGUUCAGUACCAAGUCUCAGGGGAAACUUUGAGAUGGCCUUGCAAAGGGUAUGGUAAUAAGCUGACGGACAUGGUCCUAACCACGCAGCCAAGUCCUAAGUCAACAGAUCUUCUGUUGAUAUGGAUGCAGUUCACAGACUAAAUGUCGGUCGGGGAAGAUGUAUUCUUCUCAUAAGAUAUAGUCGGACCUCUCCUUAAUGGGAGCUAGCGGAUGAAGUGAUGCAACACUGGAGCCGCUGGGAACUAAUUUGUAUGCGAAAGUAUAUUGAUUAGUUUUGGAGUACUCGUGGUCG
Outline: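 A randomised library covering all eight P1ex-region intron nucleotides was built with the intron in the knt kanamycin-resistance gene on pET-22b(+) and held in E. coli BL21(DE3). Cells were grown overnight at 37°C or 30°C on LB agar, with or without 25 μg/mL kanamycin, plus 100 μg/mL carbenicillin, 50 μM IPTG and 0.2% rhamnose, and pooled colonies were amplicon-sequenced on an Illumina HiSeq 2500. DiMSum fitness is the error-weighted combination of wild-type-normalised replicate fold changes, kanamycin versus none.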

| Sequence | self-splicing fitness (ln) (30 °C) | self-splicing fitness (ln) (37 °C) |
| --- | --- | --- |
| GGUUAGCAAUAUUACGUGGC | -3.21 ± 0.34 | -1.64 ± 0.19 |
| ACCAAGCAAUAUUACGGUUC | -3.36 ± 0.15 | -3.46 ± 0.25 |
| CCAAAGCAAUAUUACGUCUG | -0.9 ± 0.054 | -0.302 ± 0.066 |
| GCGUAGCAAUAUUACGGAUU | -1.59 ± 0.13 | -0.574 ± 0.15 |
| AAUUAGCAAUAUUACGCGAU | -3.62 ± 0.32 | -2.31 ± 0.23 |
| UGCAAGCAAUAUUACGAGUC | -2.87 ± 0.15 | -1.83 ± 0.14 |
| GGGAAGCAAUAUUACGCACG | -0.766 ± 0.16 | -0.128 ± 0.18 |
| GUUCAGCAAUAUUACGUCAC | -1.78 ± 0.17 | -1.27 ± 0.17 |
| AACGAGCAAUAUUACGGGAU | -4.34 ± 0.19 | -3.33 ± 0.23 |
| GAGGAGCAAUAUUACGCCAU | -3.46 ± 0.47 | -2.37 ± 0.41 |
| GGAAAGCAAUAUUACGAGGA | -2.88 ± 0.21 | -1.93 ± 0.24 |
| CAAGAGCAAUAUUACGAAAC | -2.91 ± 0.36 | – |
| GCUGAGCAAUAUUACGAUCA | – | -1.55 ± 0.35 |
| CUCAAGCAAUAUUACGGAGU | -3.52 ± 0.17 | -3.04 ± 0.18 |
| UCUAAGCAAUAUUACGACUC | -3.61 ± 0.48 | -2.43 ± 0.42 |
| CUUGAGCAAUAUUACGCUUG | – | -1.83 ± 0.41 |
| ACGAAGCAAUAUUACGACUU | -0.832 ± 0.058 | 0.00574 ± 0.081 |
| CCCGAGCAAUAUUACGACUG | -4.27 ± 0.22 | -2.56 ± 0.2 |
| GAUCAGCAAUAUUACGACUC | -0.0915 ± 0.14 | -0.146 ± 0.15 |
| AAGGAGCAAUAUUACGAUUA | – | -1.96 ± 0.28 |
| AGAUAGCAAUAUUACGGAUU | -1.39 ± 0.1 | 0.228 ± 0.13 |
| GGUAAGCAAUAUUACGCUUC | -4.14 ± 0.42 | -1.58 ± 0.35 |
| CUUGAGCAAUAUUACGCUCA | -1.12 ± 0.32 | -2.33 ± 0.29 |
| AUUGAGCAAUAUUACGUGCU | -3.03 ± 0.24 | -3.17 ± 0.35 |
| CAAGAGCAAUAUUACGCCUA | – | -1.91 ± 0.43 |

| Sequence | self-splicing fitness (ln) (30 °C) | self-splicing fitness (ln) (37 °C) |
| --- | --- | --- |
| GAGCAGCAAUAUUACGGUGU | -2.84 ± 0.093 | -1.56 ± 0.09 |
| UGGCAGCAAUAUUACGGUUA | -0.000429 ± 0.076 | 0.0782 ± 0.092 |
| GGCUAGCAAUAUUACGAUCA | -0.733 ± 0.093 | -0.246 ± 0.088 |
| CUCAAGCAAUAUUACGUCGG | -2.02 ± 0.1 | -1.27 ± 0.11 |
| CACAAGCAAUAUUACGGAGA | -3.31 ± 0.17 | -2.65 ± 0.2 |
| CUAAAGCAAUAUUACGCGUU | -3.08 ± 0.13 | -2.67 ± 0.27 |
| AUCGAGCAAUAUUACGGCAG | – | -2.63 ± 0.46 |
| CGGAAGCAAUAUUACGGAUG | -2.02 ± 0.073 | -0.785 ± 0.086 |
| UCAUAGCAAUAUUACGGAUU | -3.52 ± 0.12 | -3.06 ± 0.16 |
| AUUAAGCAAUAUUACGUCGG | -2.34 ± 0.18 | -1.2 ± 0.22 |
| GUGCAGCAAUAUUACGAUUU | -1.06 ± 0.1 | -0.209 ± 0.12 |
| AGUAAGCAAUAUUACGGGCA | -0.89 ± 0.15 | -0.468 ± 0.19 |
| ACCAAGCAAUAUUACGGGAG | -3.22 ± 0.13 | -2.66 ± 0.14 |
| ACGAAGCAAUAUUACGCCAG | -2.08 ± 0.19 | -1.72 ± 0.3 |
| AUAGAGCAAUAUUACGAUGG | -2.76 ± 0.21 | -2.02 ± 0.31 |
| UAUUAGCAAUAUUACGUCUU | -1.86 ± 0.14 | -0.681 ± 0.15 |
| AAACAGCAAUAUUACGACAC | -1.95 ± 0.15 | -0.33 ± 0.15 |
| CGCCAGCAAUAUUACGGUAC | -2.83 ± 0.095 | -1.52 ± 0.091 |
| UCAAAGCAAUAUUACGCCCA | -1.32 ± 0.14 | -0.49 ± 0.16 |
| UCCGAGCAAUAUUACGGGAC | -3.59 ± 0.18 | -2.2 ± 0.15 |
| UUUAAGCAAUAUUACGGCAU | -1.59 ± 0.11 | -0.239 ± 0.12 |
| AGUAAGCAAUAUUACGUAUU | -2.89 ± 0.12 | -3.05 ± 0.19 |
| UAGAAGCAAUAUUACGUCGG | -0.813 ± 0.073 | -0.306 ± 0.091 |
| CCAUAGCAAUAUUACGGACG | -1.47 ± 0.11 | -1.21 ± 0.14 |
